Source: publication PMC8571082

B1: factor inhibiting HIF-1 (FIH-1), full-length [human] / Mint3NT, N-terminal fragment (1–214) of Mint3 [human] (parent)
chain 1: MDFPTISRSPSGPPAMDLEGPRDILVPSEDLTPDSQWDPMPGGPGSLSRMELDESSLQELVQQFEALPGDLVGPSPGGAPCPLHIATGHGLASQEIADAHGLLSAEAGRDDLLGLLHCEECPPSQTGPEEPLEPAPRLLQPPEDPDEDSDSPEWVEGASAEQEGSRSSSSSPEPWLETVPLVTPEEPPAGAQSPETLASYPAPQEVPGPCDHED
chain 2: MAATAAEAVASGSGEPREEAGALGPAWDESQLRSYSFPTRPIPRLSQSDPRAEELIENEEPVVLTDTNLVYPALKWDLEYLQENIGNGDFSVYSASTHKFLYYDEKKMANFQNFKPRSNREEMKFHEFVEKLQDIQQRGGEERLYLQQTLNDTVGRKIVMDFLGFNWNWINKQQGKRGWGQLTSNLLLIGMEGNVTPAHYDEQQNFFAQIKGYKRCILFPPDQFECLYPYPVHHPCDRQSQVDFDNPDYERFPNFQNVVGYETVVGPGDVLYIPMYWWHHIESLLNGGITITVNFWYKGAPTPKRIEYPLKAHQKVAIMRNIEKMLGEALGNPQEVGPLLNTMIKGRYN

Variants of: B1
Assay: ITC
Settings: with Mint3NT, measured three times for each FIH-1 mutant

Row | Variant | screen value
1 | chain 2 D248A | -28.4 kcal/mol
2 | chain 2 E79A | -28.5 kcal/mol
3 | chain 2 E250A | 20.1 kcal/mol
4 | chain 2 K75A | 20.2 kcal/mol
5 | chain 2 E29A | 19.5 kcal/mol

Results, then the variant that gave them:

Row | screen value | Variant
6 | 21.4 kcal/mol | chain 2 N171A
7 | -28.9 kcal/mol | chain 2 Y71A
